Measured values: patent WO2007039645A1

Molecular target: VSG on Trypanosoma brucei brucei AnTat 1.1 parasites (Trypanosoma brucei brucei AnTat 1.1)
Experiment: cell-based or functional assay
Settings: scale: % of the parasites lysed at 10 μg/ml

VSG on Trypanosoma brucei brucei AnTat 1.1 parasites (Trypanosoma brucei brucei AnTat 1.1), sequence (P06015 30-480): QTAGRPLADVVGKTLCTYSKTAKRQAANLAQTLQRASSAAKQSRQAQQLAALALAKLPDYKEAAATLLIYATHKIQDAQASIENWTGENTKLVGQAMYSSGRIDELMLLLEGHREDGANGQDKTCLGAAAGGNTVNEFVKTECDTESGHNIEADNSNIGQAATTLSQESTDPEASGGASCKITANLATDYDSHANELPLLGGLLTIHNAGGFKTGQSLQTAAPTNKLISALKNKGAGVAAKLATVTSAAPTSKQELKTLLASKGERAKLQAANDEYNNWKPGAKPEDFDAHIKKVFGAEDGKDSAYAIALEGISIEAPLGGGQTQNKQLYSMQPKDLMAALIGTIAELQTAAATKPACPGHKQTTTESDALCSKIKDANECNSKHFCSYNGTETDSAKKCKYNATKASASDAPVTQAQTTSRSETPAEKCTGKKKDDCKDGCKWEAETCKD

## NbAn33-Tr-apoL-I (from UniProt O14791 28-342)
  trypanolytic activity: 100
